Laboratory results from patent US5739291, “Glutamate receptor antibodies” (The Salk Institute For Biological Studies, dated 1998).

Target: glutamate receptor subunit GluR2 (rat)
Experiment: cell-based or functional assay

Chain of glutamate receptor subunit GluR2 (rat) (chain, as listed by the source limits assumed): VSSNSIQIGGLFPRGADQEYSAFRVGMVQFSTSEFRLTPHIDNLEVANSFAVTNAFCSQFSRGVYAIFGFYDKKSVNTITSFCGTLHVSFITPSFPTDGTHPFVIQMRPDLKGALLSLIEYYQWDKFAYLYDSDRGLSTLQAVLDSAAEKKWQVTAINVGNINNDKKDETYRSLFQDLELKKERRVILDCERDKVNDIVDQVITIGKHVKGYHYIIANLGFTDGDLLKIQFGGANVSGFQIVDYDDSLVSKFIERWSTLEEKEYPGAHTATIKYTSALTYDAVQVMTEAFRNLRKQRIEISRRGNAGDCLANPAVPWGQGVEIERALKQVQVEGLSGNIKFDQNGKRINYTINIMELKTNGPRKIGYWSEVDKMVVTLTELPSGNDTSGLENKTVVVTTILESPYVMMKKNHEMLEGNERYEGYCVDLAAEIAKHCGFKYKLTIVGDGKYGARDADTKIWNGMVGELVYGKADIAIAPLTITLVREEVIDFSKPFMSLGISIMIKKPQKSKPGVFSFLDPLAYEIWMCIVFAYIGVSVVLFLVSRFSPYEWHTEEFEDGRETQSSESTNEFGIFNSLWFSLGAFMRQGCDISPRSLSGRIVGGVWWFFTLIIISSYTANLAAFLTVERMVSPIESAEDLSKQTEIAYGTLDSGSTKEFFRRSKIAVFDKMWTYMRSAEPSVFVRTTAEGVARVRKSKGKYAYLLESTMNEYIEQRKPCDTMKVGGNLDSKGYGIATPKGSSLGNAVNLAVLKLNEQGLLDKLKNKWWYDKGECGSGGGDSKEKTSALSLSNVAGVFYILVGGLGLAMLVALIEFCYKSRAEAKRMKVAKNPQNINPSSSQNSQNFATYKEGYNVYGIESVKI

B1: glutamate receptor subunit GluR1 (receptor)
chain: ANFPNNIQIGGLFPNQQSQEHAAFRFALSQLTEPPKLLPQIDIVNISDTFEMTYRFCSQFSKGVYAIFGFYERRTVNMLTSFCGALHVCFITPSFPVDTSNQFVLQLRPELQEALISIIDHYKWQTFVYIYDADRGLSVLQRVLDTAAEKNWQVTAVNILTTTEEGYRMLFQDLEKKKERLVVVDCESERLNAILGQIVKLEKNGIGYHYILANLGFMDIDLNKFKESGRNVTGFQLVNYTDTIPARIMQQWRTSDSRDHTRVDWKRPKYTSALTYDGVKVMAEAFQSLRRQRIDISRRGNAGDCLANPAVPWGQGIDIQRALQQVRFEGLTGNVQFNEKGRRTNYTLHVIEMKHDGIRKIGYWNEDDKFVPAATDAQAGGDNSSVQNRTYIVTTILEDPYVMLKKNANQFEGNDRYEGYCVELAAEIAKHVGYSYRLEIVSDGKYGARDPDTKAWNGMVGELVYGRADVAVAPLTITLVREEVIDFSKPFMSLGISIMIKKPQKSKPGVFSFLDPLAYEIWMCIVFAYIGVSVVLFLVSRFSPYEWHSEEFEEGRDQTTSDQSNEFGIFNSLWFSLGAFMQQGCDISPRSLSGRIVGGVWWFFTLIIISSYTANLAAFLTVERMVSPIESAEDLAKQTEIAYGTLEAGSTKEFFRRSKIAVFEKMWTYMKSAEPSVFVRTTEEGMIRVRKSKGKYAYLLESTMNEYIEQRKPCDTMKVGGNLDSKGYGIATPKGSALRNPVNLAVLKLNEQGLLDKLKNKWWYDKGECGTGGGDSKDKTSALSLSNVAGVFYILIGGLGLAMLVALIEFCYKSRSESKRMKGFCLIPQQSINEAIRTSTLPRNSGAGASGGGGSGENGRVVSQDFPKSMQSIPCMSHSSGMPLGATGL
B1 was tested. Which “KA-evoked currents in Xenopus oocytes on co-expression, against the summed responses of singly injected oocytes” value did it give?
The value was about 4 fold.
